The results in this text go back to patent US20040107456A1 (ACADEMIA SINICA, published 2004).

The target in test [1] is T1, GBD-OsMYBS3 fusion protein (yeast; rice).
T1 construct: Two-hybrid bait
The test is described as follows: two-hybrid in barley aleurone cells, luciferase reporter; similar results in yeast two-hybrid. The procedure:
(§1) In c-Myb, R2 and R3 bind to specific DNA sequences cooperatively. To test the possibility that OsMYBS binds DNA as dimers, homologous and heterologous interactions among OsMYBS proteins were analyzed using a two-hybrid system in barley aleurone cells. The full-length OsMYBS sequences were individually fused at the C-terminus of GAD or GBD. The GAD-OsMYBS and GBD-OsMYBS chimeric genes were fused downstream of the Ubi promoter and used as effector constructs. A DNA fragment containing five tandem repeats of UAS (5×UAS) was fused upstream of the CaMV35S minimal promoter-Luc chimeric gene and used as a reporter construct. The barley half seeds were particle-bombarded simultaneously with two effector plasmids, each containing GAD-OsMYBS and GBD-OsMYBS fusion genes, and the reporter plasmid. The bombarded half seeds were incubated in buffer without glucose for 24 h, and luciferase activity was determined. […] Except that the background level of reporter gene expression in the presence of GBD-OsMYBS1 alone is too high to detect the interactions between GBD-OsMYBS1 and GAD-OsMYBS proteins, similar results were obtained with the yeast two-hybrid experiments.
On the technique in general: Reporter assays use an easily measured gene product as a stand-in for the process of interest.

In test [2] the target is T2, GBD-OsMYBS2 fusion protein (yeast; rice).
T2 construct: Two-hybrid bait
The test is described as above. How it is done:
as §1

The target in test [3] is T3, GBD-OsMYBS1 fusion protein (yeast; rice, UniProt P04386 1-147).
T3 construct: Two-hybrid bait expressed from the Ubi promoter in barley aleurone cells
As to the kind of experiment: two-hybrid in barley aleurone cells, luciferase reporter. How it is done:
as §1

B1: GAD-OsMYBS3 fusion protein (other)
chain: MTRRCSHCSHNGHNSRTCPNRGVKIFGVRLTDGSIRKSASMGNLSLLSSAAGSTSGGASPADGPDAAPTAADGYASDDFVQGFSSATRDRKKGVPWTEEEHRRFLLGLQKLGKGDWRGISRNFVVSRTPTQVASHAQKYFIRQSNMTRRKRRSSLFDMVPDESMDLPPLPGGQEPETQVLNQPALPPPKEEEEVDSMESDTSAVAESSSASAIMPDNLQSTYPVIVPAYFSPFLQFSVPFWQNQKDEDGPVQETHEIVKPVPVHSKSPINVDELVGMSKLSIGESNQETESTSLSLNLVGGQNRQSAFHANPPTRAQA
notes: Two-hybrid prey expressed from the Ubi promoter in barley aleurone cells; not shown: limits not
B1: the binding result in test [1], in test [2] and in test [3] was “no binding” throughout.

B2: GAD-OsMYBS1 fusion protein (other)
chain: MTSQAATTTTTAAAAAAWTREDDKAFENALAACAAPPPADGGAPDDDWFAALAASVPGARSAEEVRRHYEALVEDVAAIDAGRVPLPRYAGEESAAPPDGAGAAAAASKDGGHRRDERKGGGGGYDGGKSCSKAEQERRKGIPWTEEEHRLFLLGLDKFGKGDWRSISRNFVISRTPTQVASHAQKYFIRLNSMNRDRRRSSIHDITSVTAGDQVAAQQGAPITGHQATGNPAAAALGPPGMKHHHHHHPGGAPPPMPMYSAAPMGHPVAGHMVPAAVGTPVVFPPGHAPYVVPVGYPAPPAKMHQ
notes: as for B1
Take B2: the binding result in test [1] and in test [2] was “no binding” throughout.
